Test results from paper PMC8466238, “Development of High Affinity Calcitonin Analog Fragments Targeting Extracellular Domains of Calcitonin Family Receptors” (Biomolecules, 2021).
Values belong to the molecule of their own block, whether it stands above or below them. The star is where a group is joined. FITC = O=C1OC2(c3ccc(O)cc3Oc3cc(O)ccc32)c2ccc(NC(=S)*)cc21; Ahx = NCCCCCC(=O)O

Tests used:
CGRP receptor = settings: versus CGRP(27–37); cited from earlier work
From the text: The mutational strategies for developing high-affinity sCT peptide fragments came from the systemic report on CGRP and its high-affinity analogs. […] This supports the idea that applying affinity-enhancing mutations to the cor ...

[1] = biological target: T1, RAMP1-CTR ECD fusion protein (hRAMP1.24–111-(GSA)3-hCTR.34–141-H6) (human, UniProt O60894 24-111; P30988 34-141); assay: fluorescence polarisation; competition binding, full curves: FITC-AC413(6–25) Y25P probe 10 nM, RAMP1-CTR ECD 77 nM, RAMP2-CTR ECD 67 nM or RAMP3-CTR ECD 252 nM, competitive peptide at multiple concentrations, all in solution; KI from non-linear regression of anisotropy; settings: both partners purified
T1 construct: human receptor activity-modifying protein 1 (RAMP1), extracellular domain, residues 24-111; linker, printed as (GSA)3; human calcitonin receptor (CTR), extracellular domain, residues 34-141; Secreted from a pHLsec-based vector; also called AMY receptor 1 ECD; RAMP1 ECD-CTR ECD fusion; source: HEK293T, transiently transfected, secreted to cell culture media, purified (IMAC, SEC)
T1 chain: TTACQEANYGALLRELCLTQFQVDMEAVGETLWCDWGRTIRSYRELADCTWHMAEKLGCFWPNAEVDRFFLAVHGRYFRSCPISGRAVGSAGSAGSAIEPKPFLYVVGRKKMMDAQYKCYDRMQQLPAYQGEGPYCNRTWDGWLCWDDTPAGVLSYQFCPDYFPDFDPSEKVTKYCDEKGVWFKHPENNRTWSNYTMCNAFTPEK

[2] = biological target: T2, RAMP3-CTR ECD fusion protein (hRAMP3.25–112-(GSA)3-hCTR.34–141-H6) (human, UniProt O60896 25-112; P30988 34-141); assay: as above; settings: both partners purified
T2 construct: human receptor activity-modifying protein 3 (RAMP3), extracellular domain, residues 25-112; linker, printed as (GSA)3; human calcitonin receptor (CTR), extracellular domain, residues 34-141; Secreted from a pHLsec-based vector; also called AMY receptor 3 ECD; RAMP3 ECD-CTR ECD fusion protein; source: HEK293S GnTI-, transiently transfected (PEI), secreted to cell culture media, purified (IMAC, SEC)
T2 chain: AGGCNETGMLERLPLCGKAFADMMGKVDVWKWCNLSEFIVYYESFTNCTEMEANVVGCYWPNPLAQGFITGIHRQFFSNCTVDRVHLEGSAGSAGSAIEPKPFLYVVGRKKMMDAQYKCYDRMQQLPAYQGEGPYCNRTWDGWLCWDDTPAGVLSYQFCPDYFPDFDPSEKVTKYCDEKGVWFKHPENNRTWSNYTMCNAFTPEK

[3] = biological target: T3, RAMP2-CTR ECD fusion protein (hRAMP2.55–140-(GSA)3-hCTR.34–141-H6) (human, UniProt O60895 55-140; P30988 34-141); assay: as above; settings: both partners purified
T3 construct: human receptor activity-modifying protein 2 (RAMP2), extracellular domain, residues 55-140; linker, printed as (GSA)3; human calcitonin receptor (CTR), extracellular domain, residues 34-141; Secreted from a pHLsec-based vector; also called AMY receptor 2 ECD; RAMP2 ECD-CTR ECD fusion; source: HEK293T, transiently transfected, secreted to cell culture media, purified (IMAC, SEC)
T3 chain: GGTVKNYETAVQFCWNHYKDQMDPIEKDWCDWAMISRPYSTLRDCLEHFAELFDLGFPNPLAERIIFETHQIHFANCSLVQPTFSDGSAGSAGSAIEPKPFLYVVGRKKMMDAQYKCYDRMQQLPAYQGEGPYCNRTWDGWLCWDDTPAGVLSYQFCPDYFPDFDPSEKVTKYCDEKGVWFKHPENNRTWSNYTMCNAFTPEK

FITC-labeled sCT(22–32) = biological target: T4, FITC-labeled sCT(22–32) (salmon, SMILES …); assay: fluorescence polarisation; saturation binding: FITC-labeled peptide probe (10 nM) with rising receptor ECD concentrations; receptor ECD concentration at half of the maximal anisotropy; settings: both partners purified
T4 construct: salmon calcitonin (sCT), residues 22-32; numbers count on: the mature 32-residue hormone; peptide probe of the FP assay with the CTR ECD; also called FITC-sCT(22–32); source: synthetic peptide (Genscript, HPLC-purified)
T4 peptide: {FITC-Ahx}-YPRTNTGSGTP-NH2

Molecule: CGRPmut: human alpha CGRP(27–37) with N31D, S34P, and K35F mutations
increase in CGRP affinity for its receptor (CGRP receptor): 100 fold

binding result [1]: binds
binding result [2]: binds
binding result [3]: binds
B1: FITC-labeled AC413(6–25) with Y25P mutation (peptide)
peptide: {FITC-Ahx}-ANFLVRLQTYPRTNVGANTP-NH2
SMILES: CC(C)C[C@H](NC(=O)[C@H](CCCNC(=N)N)NC(=O)[C@@H](NC(=O)[C@H](CC(C)C)NC(=O)[C@H](Cc1ccccc1)NC(=O)[C@H](CC(N)=O)NC(=O)[C@H](C)NC(=O)CCCCCNC(=S)Nc1ccc2c(c1)C(=O)OC21c2ccc(O)cc2Oc2cc(O)ccc21)C(C)C)C(=O)N[C@@H](CCC(N)=O)C(=O)N[C@H](C(=O)N[C@@H](Cc1ccc(O)cc1)C(=O)N1CCC[C@H]1C(=O)N[C@@H](CCCNC(=N)N)C(=O)N[C@H](C(=O)N[C@@H](CC(N)=O)C(=O)N[C@H](C(=O)NCC(=O)N[C@@H](C)C(=O)N[C@@H](CC(N)=O)C(=O)N[C@H](C(=O)N1CCC[C@H]1C(N)=O)[C@@H](C)O)C(C)C)[C@@H](C)O)[C@@H](C)O
notes: residues 6-25 of AC413, an antagonistic amylin peptide analog, with Y25P; peptide probe of the FP assay with the AMY receptor ECDs; also called FITC-AC413(6–25) Y25P; source: synthetic peptide (Genscript, HPLC-purified)

receptor ECD concentration that produced a half of the maximal anisotropy with the peptide probe (FITC-labeled sCT(22–32)): 500 nM
B2: calcitonin receptor extracellular domain (hCTR.34–141-H6) (receptor, human, UniProt P30988 34-141, looked up)
chain: IEPKPFLYVVGRKKMMDAQYKCYDRMQQLPAYQGEGPYCNRTWDGWLCWDDTPAGVLSYQFCPDYFPDFDPSEKVTKYCDEKGVWFKHPENNRTWSNYTMCNAFTPEK
notes: human calcitonin receptor (CTR), extracellular domain, residues 34-141; Secreted from a pHLsec-based vector; also called CTR ECD; purified CTR ECD; source: HEK293T, transiently transfected, secreted to cell culture media, purified (IMAC, SEC)
